Measurements taken from PMC3024981, “It Takes Two to Tango: Defining an Essential Second Active Site in Pyridoxal 5′-Phosphate Synthase” (PLoS ONE, 2011).
Where “and” joins values, the source holds several entries; their conditions need not be identical. Identical values can stand only once.

B1: Pdx1 wild type (Bacillus subtilis), native (untagged) (enzyme)
chain: MAQTGTERVKRGMAEMQKGGVIMDVINAEQAKIAEEAGAVAVMALERVPADIRAAGGVARMADPTIVEEVMNAVSIPVMAKARIGHIVEARVLEAMGVDYIDESEVLTPADEEFHLNKNEYTVPFVCGCRDLGEATRRIAEGASMLRTKGEPGTGNIVEAVRHMRKVNAQVRKVVAMSEDELMTEAKNLGAPYELLLQIKKDGKLPVVNFAAGGVATPADAALMMQLGADGVFVGSGIFKSDNPAKFAKAIVEATTHFTDYKLIAELSKELGTAMKGIEISNLLPEQRMQERGW
notes: Pdx1, synthase subunit of PLP synthase, Bacillus subtilis; construct pETBsPdx1 of Raschle et al. (2005); Native means untagged; Dodecamer by SEC-MALS; also called BsPdx1 wild type; PLP synthase synthase subunit; source: construct pETBsPdx1; expressed and purified as described by Raschle et al. (2005); copies: 12
B2: Pdx1 K187A (Bacillus subtilis), hexahistidine tagged (enzyme)
chain: MAQTGTERVKRGMAEMQKGGVIMDVINAEQAKIAEEAGAVAVMALERVPADIRAAGGVARMADPTIVEEVMNAVSIPVMAKARIGHIVEARVLEAMGVDYIDESEVLTPADEEFHLNKNEYTVPFVCGCRDLGEATRRIAEGASMLRTKGEPGTGNIVEAVRHMRKVNAQVRKVVAMSEDELMTEAANLGAPYELLLQIKKDGKLPVVNFAAGGVATPADAALMMQLGADGVFVGSGIFKSDNPAKFAKAIVEATTHFTDYKLIAELSKELGTAMKGIEISNLLPEQRMQERGW
notes: Pdx1, synthase subunit of PLP synthase, Bacillus subtilis; parent construct pETBsPdx1-His6 of Strohmeier et al. (2006); It is in a dodecamer:hexamer equilibrium by SEC-MALS; also called Pdx1 K187A mutein; source: site directed mutagenesis of Pdx1; expressed and purified as described by Raschle et al. (2005); not shown: His6, C-terminal, kept
B3: Pdx1 R288A (Bacillus subtilis), native (untagged) (enzyme)
chain: MAQTGTERVKRGMAEMQKGGVIMDVINAEQAKIAEEAGAVAVMALERVPADIRAAGGVARMADPTIVEEVMNAVSIPVMAKARIGHIVEARVLEAMGVDYIDESEVLTPADEEFHLNKNEYTVPFVCGCRDLGEATRRIAEGASMLRTKGEPGTGNIVEAVRHMRKVNAQVRKVVAMSEDELMTEAKNLGAPYELLLQIKKDGKLPVVNFAAGGVATPADAALMMQLGADGVFVGSGIFKSDNPAKFAKAIVEATTHFTDYKLIAELSKELGTAMKGIEISNLLPEQAMQERGW
notes: Pdx1, synthase subunit of PLP synthase, Bacillus subtilis; also called Pdx1 R288A mutein; source: site directed mutagenesis of Pdx1; expressed and purified as described by Raschle et al. (2005); copies: 12
B4: Pdx2 (glutaminase, activated by Pdx1) (Bacillus subtilis subsp. subtilis str. 168) (protein)
chain: MLTIGVLGLQGAVREHIHAIEACGAAGLVVKRPEQLNEVDGLILPGGESTTMRRLIDTYQFMEPLREFAAQGKPMFGTCAGLIILAKEIAGSDNPHLGLLNVVVERNSFGRQVDSFEADLTIKGLDEPFTGVFIRAPHILEAGENVEVLSEHNGRIVAAKQGQFLGCSFHPELTEDHRVTQLFVEMVEEYKQKALV
notes: Pdx2 with untagged wild-type Pdx1; with Pyridoxal 5'-phosphate synthase subunit PdxS
B5: Pdx2 H170N (Bacillus subtilis), catalytically inert mutein (enzyme, UniProt P37528 1-196, looked up)
chain: MLTIGVLGLQGAVREHIHAIEACGAAGLVVKRPEQLNEVDGLILPGGESTTMRRLIDTYQFMEPLREFAAQGKPMFGTCAGLIILAKEIAGSDNPHLGLLNVVVERNSFGRQVDSFEADLTIKGLDEPFTGVFIRAPHILEAGENVEVLSEHNGRIVAAKQGQFLGCSFNPELTEDHRVTQLFVEMVEEYKQKALV
notes: Pdx2, glutaminase subunit of PLP synthase, Bacillus subtilis; It was used together with glutamine (Michaelis complex of Pdx2 H170N and glutamine); also called Pdx2-His6 H170N; Pdx2 H170N mutein; source: construct Pdx2-His6 H170N of Strohmeier et al. (2006); expressed and purified as described by Raschle et al. (2005)
B6: PLP synthase (Pdx1 + Pdx2), native Pdx1 (Bacillus subtilis subsp. subtilis str. 168) (protein)
chain: AQTGTERVKRGMAEMQKGGVIMDVINAEQAKIAEEAGAVAVMALERVPADIRAAGGVARMADPTIVEEVMNAVSIPVMAKARIGHIVEARVLEAMGVDYIDESEVLTPADEEFHLNKNEYTVPFVCGCRDLGEATRRIAEGASMLRTKGEPGTGNIVEAVRHMRKVNAQVRKVVAMSEDELMTEAKNLGAPYELLLQIKKDGKLPVVNFAAGGVATPADAALMMQLGADGVFVGSGIFKSDNPAKFAKAIVEATTHFTDYKLIAELSKELGTAMKGIEISNLLPEQRMQERGW
notes: complex of untagged Pdx1 with Pdx2; 24-subunit complex; with Pyridoxal 5'-phosphate synthase subunit PdxT
B7: PLP synthase (Pdx1-His6 + Pdx2) (Bacillus subtilis subsp. subtilis str. 168; H115A) (protein)
chain: AQTGTERVKRGMAEMQKGGVIMDVINAEQAKIAEEAGAVAVMALERVPADIRAAGGVARMADPTIVEEVMNAVSIPVMAKARIGHIVEARVLEAMGVDYIDESEVLTPADEEFALNKNEYTVPFVCGCRDLGEATRRIAEGASMLRTKGEPGTGNIVEAVRHMRKVNAQVRKVVAMSEDELMTEAKNLGAPYELLLQIKKDGKLPVVNFAAGGVATPADAALMMQLGADGVFVGSGIFKSDNPAKFAKAIVEATTHFTDYKLIAELSKELGTAMKGIEISNLLPEQRMQERGW
notes: complex of C-terminally hexahistidine-tagged Pdx1 with Pdx2-His6; with Pyridoxal 5'-phosphate synthase subunit PdxT
B8: PLP synthase (Pdx1-His6 + Pdx2) (Bacillus subtilis subsp. subtilis str. 168) (protein)
chain: AQTGTERVKRGMAEMQKGGVIMDVINAEQAKIAEEAGAVAVMALERVPADIRAAGGVARMADPTIVEEVMNAVSIPVMAKARIGHIVEARVLEAMGVDYIDESEVLTPADEEFHLNKNEYTVPFVCGCRDLGEATRRIAEGASMLRTKGEPGTGNIVEAVRHMRKVNAQVRKVVAMSEDELMTEAKNLGAPYELLLQIKKDGKLPVVNFAAGGVATPADAALMMQLGADGVFVGSGIFKSDNPAKFAKAIVEATTHFTDYKLIAELSKELGTAMKGIEISNLLPEQRMQERGW
notes: as for B7
B9: PLP synthase (Pdx1-His6 + Pdx2) (Bacillus subtilis subsp. subtilis str. 168; R138A) (protein)
chain: AQTGTERVKRGMAEMQKGGVIMDVINAEQAKIAEEAGAVAVMALERVPADIRAAGGVARMADPTIVEEVMNAVSIPVMAKARIGHIVEARVLEAMGVDYIDESEVLTPADEEFHLNKNEYTVPFVCGCRDLGEATRAIAEGASMLRTKGEPGTGNIVEAVRHMRKVNAQVRKVVAMSEDELMTEAKNLGAPYELLLQIKKDGKLPVVNFAAGGVATPADAALMMQLGADGVFVGSGIFKSDNPAKFAKAIVEATTHFTDYKLIAELSKELGTAMKGIEISNLLPEQRMQERGW
notes: as for B7
B10: PLP synthase (Pdx1-His6 + Pdx2) (Bacillus subtilis subsp. subtilis str. 168; H115A/R138A) (protein)
chain: AQTGTERVKRGMAEMQKGGVIMDVINAEQAKIAEEAGAVAVMALERVPADIRAAGGVARMADPTIVEEVMNAVSIPVMAKARIGHIVEARVLEAMGVDYIDESEVLTPADEEFALNKNEYTVPFVCGCRDLGEATRAIAEGASMLRTKGEPGTGNIVEAVRHMRKVNAQVRKVVAMSEDELMTEAKNLGAPYELLLQIKKDGKLPVVNFAAGGVATPADAALMMQLGADGVFVGSGIFKSDNPAKFAKAIVEATTHFTDYKLIAELSKELGTAMKGIEISNLLPEQRMQERGW
notes: as for B7
B11: PLP synthase (Pdx1-His6 + Pdx2) (Bacillus subtilis subsp. subtilis str. 168; E105D) (protein)
chain: AQTGTERVKRGMAEMQKGGVIMDVINAEQAKIAEEAGAVAVMALERVPADIRAAGGVARMADPTIVEEVMNAVSIPVMAKARIGHIVEARVLEAMGVDYIDESDVLTPADEEFHLNKNEYTVPFVCGCRDLGEATRRIAEGASMLRTKGEPGTGNIVEAVRHMRKVNAQVRKVVAMSEDELMTEAKNLGAPYELLLQIKKDGKLPVVNFAAGGVATPADAALMMQLGADGVFVGSGIFKSDNPAKFAKAIVEATTHFTDYKLIAELSKELGTAMKGIEISNLLPEQRMQERGW
notes: as for B7
B12: PLP synthase (Pdx1-His6 + Pdx2) (Bacillus subtilis subsp. subtilis str. 168; K187A) (protein)
chain: AQTGTERVKRGMAEMQKGGVIMDVINAEQAKIAEEAGAVAVMALERVPADIRAAGGVARMADPTIVEEVMNAVSIPVMAKARIGHIVEARVLEAMGVDYIDESEVLTPADEEFHLNKNEYTVPFVCGCRDLGEATRRIAEGASMLRTKGEPGTGNIVEAVRHMRKVNAQVRKVVAMSEDELMTEAANLGAPYELLLQIKKDGKLPVVNFAAGGVATPADAALMMQLGADGVFVGSGIFKSDNPAKFAKAIVEATTHFTDYKLIAELSKELGTAMKGIEISNLLPEQRMQERGW
notes: as for B7

How the values were obtained:
[1] = biological target: the molecule itself; test: SEC-MALS; Superdex 200 10/300 GL, 100 µl at 1 mg/ml; 50 mM potassium phosphate pH 7.5, 50 mM potassium chloride, 0.01% sodium azide; miniDAWN TREOS; dodecamer to hexamers
[2] = substrate: NC(=O)CC[C@H](N)C(=O)O; test: coupled glutaminase assay; type: biochemical, Bacillus subtilis; details: activated by wild-type Pdx1, 50 mM Tris-Cl pH 7.5, 37°C
Text: coupled glutaminase assay on Pdx2 (glutaminase, activated by Pdx1)

[3] = biological target: B1; test: other fluorescence titration; intrinsic protein fluorescence of Pdx1 titrated with increasing concentrations of Pdx2 H170N in the presence of glutamine, without R5P; decrease in fluorescence intensity; done as described in ref. 21; details: both partners purified
[4] = biological target: T1, Pdx1 R288K (Bacillus subtilis), native (untagged) (Bacillus subtilis, UniProt P37527 1-294, R288K); test: as above; details: both partners purified
T1 construct: Pdx1, synthase subunit of PLP synthase, Bacillus subtilis; also called Pdx1 R288K mutein; source: site directed mutagenesis of Pdx1; expressed and purified as described by Raschle et al. (2005)
T1 sequence: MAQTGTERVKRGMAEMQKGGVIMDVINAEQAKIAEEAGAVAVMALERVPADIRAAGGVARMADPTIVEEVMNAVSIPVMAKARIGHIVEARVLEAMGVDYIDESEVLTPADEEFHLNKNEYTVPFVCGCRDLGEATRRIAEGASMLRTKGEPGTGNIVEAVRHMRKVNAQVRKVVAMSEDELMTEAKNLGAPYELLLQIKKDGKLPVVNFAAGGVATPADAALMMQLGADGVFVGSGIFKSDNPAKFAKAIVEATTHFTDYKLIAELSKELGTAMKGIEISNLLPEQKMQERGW

[5] = biological target: B3; test: as above; details: both partners purified
purified protein = substrate: O=CC(O)COP(=O)(O)O; test: purified protein; type: biochemical, Bacillus subtilis; details: R5P and glutamine as co-substrates, 50 mM Tris-Cl pH 7.5, 37°C

| Binder | Km (purified protein; His-tagged proteins) | kcat (purified protein; His-tagged proteins) | kcat/Km (purified protein; His-tagged proteins) | further results |
| --- | --- | --- | --- | --- |
| B1 |  |  |  | stoichiometry N [1]: 12 |
| B2 |  |  |  | stoichiometry N [1]: 12 and 6 |
| B3 |  |  |  | stoichiometry N [1]: 12 |
| B4 |  |  |  | Km [2]: 1160 ± 180 µM; kcat [2]: 0.0295 ± 0.00133 s⁻¹; kcat/Km [2]: 25.5 M⁻¹ s⁻¹ |
| B5 |  |  |  | binding result [3]: binds; binding result [4]: binds; binding result [5]: binds |
| B6 |  |  |  | Km (purified protein): 186 ± 17 µM; kcat (purified protein): 0.00055 ± 3.3e-05 s⁻¹; kcat/Km (purified protein): 2.95 M⁻¹ s⁻¹ |
| B7 | 229 ± 55 µM | 0.00013 ± 0 s⁻¹ | 0.583 M⁻¹ s⁻¹ |  |
| B8 | 155 ± 23 µM | 0.0006 ± 8.3e-05 s⁻¹ | 3.87 M⁻¹ s⁻¹ |  |
| B9 | 262 ± 26 µM | 0.0002 ± 1.7e-05 s⁻¹ | 0.767 M⁻¹ s⁻¹ |  |
| B10 | 307 ± 75 µM | 0.0001 ± 0 s⁻¹ | 0.333 M⁻¹ s⁻¹ |  |
| B11 | 249 ± 26 µM | 0.000233 ± 1.7e-05 s⁻¹ | 0.933 M⁻¹ s⁻¹ |  |
| B12 | 267 ± 18 µM | 0.0005 ± 1.7e-05 s⁻¹ | 1.87 M⁻¹ s⁻¹ |  |
